# Values of other authors, collected in article PMC3507713.
# Molecular target: TRAIL (Homo sapiens) (UniProt P50591)
# Chain of UniProt P50591 (P50591 whole entry): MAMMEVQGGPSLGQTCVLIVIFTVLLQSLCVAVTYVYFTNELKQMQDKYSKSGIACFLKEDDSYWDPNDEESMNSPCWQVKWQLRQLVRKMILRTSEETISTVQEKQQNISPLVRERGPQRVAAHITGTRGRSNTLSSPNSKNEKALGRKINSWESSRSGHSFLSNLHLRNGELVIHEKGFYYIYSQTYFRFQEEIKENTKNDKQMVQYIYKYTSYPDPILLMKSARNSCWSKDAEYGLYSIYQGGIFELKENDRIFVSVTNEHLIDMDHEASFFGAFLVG
substance,measurement,value
Osteoprotegerin (from UniProt O00300),Kd,400 nM
